From the DeepSol protein solubility set come the findings set out here.

The data set in a line: soluble on expression in E. coli; label from the status in PepcDB or PDB records.
As to “VGYGDITQVETSGASSKTSRQDKLEYDGVRASHTMAQTDAGRMEKYKSFINNVAKKHVVDPAVIAAIISRESRAGNVIFNTTPPGWGDNYNGFGLMQVDKRYHEPRGAWNSEEHIDQATGILVNFIQLIQKKFPSWSTEQQLKGAIAAYNTGDGRVESYESVDSRTTGKDYSNDVVARAQWYKKNGF”, the “soluble on expression in E. coli” value is on record as “soluble”.
As to “VHADLAATTSREDFRLLAAEHRVVPVTRKVLADSETPLSAYRKLAANRPGTFLLESAENGRSWSRWSFIGAGAPTALTVREGQAVWLGAVPKDAPTGGDPLRALQVTLELLATADRQSEPGLPPLSGGMVGFFAYDMVRRLERLPERAVDDLCLPDMLLLLATDVAAVDHHEGTITLIANAVNWNGTDERVDWAYDDAVARLDVMTAALGQPLPSTVATFSRPEPRHRAQRTVEEYGAIVEYLVDQIAAGEAFQVVPSQRFEMDTDVDPIDVYRILRVTNPSPYMYLLQVPNSDGAVDFSIVGSSPEALVTVHEGWATTHPIAGTRWRGRTDDEDVLLEKELLADDKERAEHLMLVDLGRNDLGRVCTPGTVRVEDYSHIERYSHVMHLVSTVTGKLGEGRTALDAVTACFPAGTLSGAPKVRAMELIEEVEKTRRGLYGGVVGYLDFAGNADFAIAIRTALMRNGTAYVQAGGGVVADSNGSYEYNEARNKARAVLNAIAAAETLAAPGANRSGC”, the “soluble on expression in E. coli” value was “soluble”.
To “VHYGLKGITCVETSISHIDGEKGRLIYRGHHAKDIALNHSFEEAAYLILFGKLPSTEELQVFKDKLAAERNLPEHIERLIQSLPNNMDDMSVLRTVVSALGENTYTFHPKTEEAIRLIAITPSIIAYRKRWTRGEQAIAPSSQYGHVENYYYMLTGEQPSEAKKKALETYMILATEHGMNASTFSARVTLSTESDLVSAVTAALGTMKGPLHGGAPSAVTKMLEDIGEKEHAEAYLKEKLEKGERLMGFGHRVYKTKDPRAEALRQKAEEVAGNDRDLDLALHVEAEAIRLLEIYKPGRKLYTNVEFYAAAVMRAIDFDDELFTPTFSASRMVGWCAHVLEQAENNMIFRPSAQYTGAIPEEV” belongs “soluble”.
Under “VIDALRNNNDYEPYNKDSNNQAFNSEEITRFFSIGKYTYPSIFSELNFIINAREAFVSIQTSTIPKTAYAAVNFVETQGEDESYTDSLSTDNKRDIYADFAVIEIPLFLTNHRDYQVFNEFIKPAIETYKQLGNSSFEKKQLDQHKNDNFYMLGYPLVESSIDALILNQRRQYNNSYTEKYTPQTLTKDQRTIDLSREVPTLIQNKTENSTGSQLLVNQSLSSTSEGIIE” stands “not soluble”; under “VIIDTSALLAYFDAAEPDHAAVSECIDSSADALVVSPYVVAELDYLVATRVGVDAELAVLRELAGGAWELANCGAAEIEQAARIVTKYQDQRIGIADAANVVLADRYRTRTILTLDRRHFSALRPIGGGRFTVIP”, “not soluble”; under “VKSNAQIDSVKCFSTMNDEEIVEDSRAGDDRALEYLINKYKGFVRAKARTYFLIGADREDIIQEGMIGLYKAIRDFRKDKLSSFRAFAELCITRQIITAIKTATRQKHIPLNSYVSLNKPIFDEESDRTLMDIISEESINDPEEMVINREEFSGIEAKMGEILSSLECEVLTSYLQGKSYQEIAVELDRHVKSIDNALQRVKRKLEKYLEESRI”, “soluble”.
To “VLFRQLEYFVAVAQERHFARAAEKCYVSQPALSSAIAKLERELNVTLINRGHSFEGLTREGERLVVWAKRILAEHAAFKAEVDAVRSGITGTLRLGTVPTASTTASLVLSAFCSAHPLAKVQVCSRLAATELYRRLREFELDAVIVHPETQDSDDVDLVPLYEEQYVLLSPADMLPPGTSTLVWRDAAQLPLALLTADMRDRQVIDAAFADHAVSAIPQVETDSVASLFAQVATGNWASIVPHTWLWAMPMSGPTGGEIRAVELVDPVLKAQIALATNALGPGSPVARALITCAQALALNEFFDTQLRGITRRR” belongs “not soluble”; to “VNDNQLAPVARPRSPLELLDTVPDSLLRRLKQYSGRLATEAVSAMQERLPFFADLEASQRASVALVVQTAVVNFVEWMHDPHSDVGYTAQAFELVPQDLTRRIALRQTVDMVRVTMEFFEEVVPLLARSEEQLTALTVGILKYSRDLAFTAATAYADAAEARGTWDSRMEASVVDAVVRGDTGPELLSRAAALNWDTTAPATVLVGTPAPGPNGSNSDGDSERASQDVRDTAARHGRAALTDVHGTWLVAIVSGQLSPTEKFLKDLLAAFADAPVVIGPTAPMLTAAHRSASEAISGMNAVAGWRGAPRPVLARELLPERALMGDASAIVALHTDVMRPLADAGPTLIETLDAYLDCGGAIEACARKLFVHPNTVRYRLKRITDFTGRDPTQPRDAYVLRVAATVGQLNYPTPH”, “not soluble”; to “VPACTVSNTTVDWQDVEIQTLSQNGNHEKEFTVNMRCPYNLGTMKVTITATNTYNNAILVQNTSNTSSDGLLVYLYNSNAGNIGTAITLGTPFTPGKITGNNADKTISLHAKLGYKGNMQNLIAGPFSATATLVASYS”, “soluble”.
Consider “VPGTLLPRLPSEPGMTLLTIRIEKIGLKDAGQCIDPYITVSVKDLNGIDLTPVQDTPVASRKEDTYVHFNVDIELQKHVEKLTKGAAIFFEFKHYKPKKRFTSTKCFAFMEMDEIKPGPIVIELYKKPTDFKRKKLQLLTKKPLYLHLHQSLHKE”, for which the “soluble on expression in E. coli” value is “soluble”.
“VPMDELNERIFKEVVMYLRQHIKNYDNILDALRSTFHSTNHVEKLFFGGKINMLNQPEFHDITRVRSLLSLIEKEQDVLKLVQSPHTGISIKIGKENDYEEMENCSLITASYSVDQKQIGSIAIIGPTRMNYSRVVSLLQHVTSDLSKALTSLYDE”: the “soluble on expression in E. coli” value is recorded as “not soluble”.
On to “VPVQLADLKEVRIAYQSIGSESDPALLLVMGLGGQLIHWPDEVVVALCQQGYRVIRYDNRDVGLSTWVQQPADANLTVEVLRYKLGLPVSSPYSLTDMADDALGLMDALQIRQFHVLGASMGGMIAQHLADLAPSRVESLTLIMTSSGAQGLPMPNAALLQLLARRGAPDREVALEQQADLLAALGSPQVKDDREQLLHQAAVSYDRAFNPEGVKRQIMAILAEPSRVELLNRLRLPVLVVHGTADPLLPVMHGVHVAAHIQGSQLRLIPGLAHRFQEAFKAPLLGAVLPYLKA”, for which the “soluble on expression in E. coli” value is recorded as “not soluble”.
Under “VRRLLIVHHTPSPHMQEMFEAVVSGATDPEIEGVEVVRRPALTVSPIEMLEADGYLLGTPANLGYISGALKHAFDVCYYLCLDTTRGRSFGAYIHGNEGTEGAERAVDAITTGLGWVQAAETVVVMGKPSKADIEACWNLGATVAAQLMG” stands “soluble”.
For the sequence “VSKAVQYMAKRRIGALIVFEKETGLQDYIETGIPMNSDISQELLTNVFIPNTPLHDGAMIIQGSKIAVAASYLPLSDSVKISKSLGTRHRAAVGISEVSDAFTVVVSEETGDISVTFDGKLRRDISKDVFEELLAEHWFGAHFQKKGVNS”, the “soluble on expression in E. coli” value is recorded as “not soluble”.
For the sequence “VTGPTEESAVATVADWPEGLAAVLRGAADQARAAVVEFSGPEAVGDYLGVSYEDGNAATHRFIAHLPGYQGWQWAVVVASYSGADHATISEVVLVPGPTALLAPDWVPWEQRVRPGDLSPGDLLAPAKDDPRLVPGYTASGDAQVDETAAEIGLGRRWVMSAWGRAQSAQRWHDGDYGPGSAMARSTKRVCRDCGFFLPLAGSLGAMFGVCGNELSADGHVVDRQYGCGAHSDTTAPAGGSTPIYEPYDDGVLDIIEKPAES”, the “soluble on expression in E. coli” value was “soluble”.
To “VTQQSRQLLDVTRIYYEPAAAELPRGRQVLERWPDATLVPVESHWRIPELHGDETNVDRWVRIKREALVLGIKKSLTAKPNGRSADFIAPSTANGCAMACAYCYVPRRKGYSNPITVFTNIEQITGYLERHVHRQGVKPEPNQCDPASWVYDLGENSDCSVDAEVSDNVDDLIALFRGLPTAKASFATKHVNRRLLTLDPQGRTRVRFSLMPARVAKLLDVRTSPVPERLGALDDFVAAGYEVHVNLSPVVVHEDWLPVWAALLDELGDATNDATKAQLQAEVIFLTHEENLHRVNLGWHPKAEDLLWRPAMQETKRSQNGGVNVRYRTGDKGRYVQQLLALIEERAPYLRVRYAF” belongs “soluble”; to “VTSPLLPQIGVDPPERGDAARNRRLLLDAAALLVAERGVDAVTMDAVACRAGVGKGTVFRRFGSRSGLMHALLDHTERELQQSFMFGPPPLGPGADPIDRLIAYGHARIAIVEVQGEVQRAAENSVEFRFAAPARAVSVRHVVSLLRAAGVRCDHELLACSLLAPLEATLVLHELRDLGMSVERLGAAWEDLIRRVTRC”, “not soluble”; to “VVELDETPVRTLLARQGIYDKNSAIVAYELLYRNSDAENSHVDNLNQSSGEAATSSVLVQLFANLDVNTIIGNKQAFINFTHSHLVQKIPMLLPKNRIVIEVLETVAIDQPLLLNLMELKKQGYQIALDDFVFRNELAPLVDMADIIKIDVLHLDQQQIAEQLLPLKSFRGKLLAEKIEDKQQFNHCVNLGFDFFQGFFLNKP”, “not soluble”.
Under “VVTCATDGNHGRSVAWGAQMFGCGCIIYIHRDVSEGRKVAMEAFDAEVIRITGNYDESVRQAGADAKAHGRIIVSDTSYEGYMEVPKDVALGYTVMLAETVEQLDGEIPTHVFVQGGVGGLASAVAGYFWDLWGDRRPRFVVVEPEQANCLQLSAKAGEPVVVKGDLDTLMAGLACGEVSLLAWQILSNGADDFMTLSEDAIADTMSLLAKGYKGDPAIEAGESAVPGLAAAINARAQDTFAKALNLDAQSKVLVIGTEGAT” stands “not soluble”; under “WYNFTKRAVKIVLIPVSWFMKAERFAKFENNISEKIDSFYEESVRMTKDWR”, “not soluble”.
Under “YATPDNMLSRFGEQDLTLLTEREDSVPGEINLALLEQALSDASAEIDGYIAGRYVLPLTTVPAVLERNCCDIARYFLYGDKAPEQVEKRYAAVVKFLTAVSKGDISLGLATTGETADQSELVISIESAGSVFGRKSAKGF” stands “not soluble”; under “YDQSSVLIVGDVMLDRYWGGPTSRISPEAPVPVVKVEKIEERPGGAANVAMNIAALGGDAHLVGLVGEDEPAQALTTTLESLKVHCDFVALPEFPTITKLRVMSRGQQLIRLDFEDSFHDVAAEPIISRMQQALSSVKAVVLSDYAKGALEHVQLMIQEARKVNVPVFIDPKGADFERYRGATLLTPNMLEFETVVGKVKDEDDLVAKGQQIIEEFDFEALLVTRSEHGMTLLRRNMEPLHLPTQAREVFDVTGAGDTVISVLAASVSTGKPLDEACALANAAAGVVVGKLGTSTLSTIELAEAIHG”, “not soluble”.
Take “YENIQNIEDFYRFINAHALAVVHIMRDNCTVCHAVLPQIQDLLKDYPKAQLGVINQSNVEEIAGELSIFTVPVDLIFLKGKEMHRQARFIDMQSFEKQLYMMQNAID”: the “soluble on expression in E. coli” value was “soluble”.
To “YGNMTEDHVMHLLQNADPLKVYPPLKGSFPENLRHLKNTMETIDWKVFESWMHHWLLFEMSRHSLEQKPTDAPPK” belongs “soluble”; to “YHPVFSAKIEQRLIERFGVRRALIALDQPNDEAQRQQVAGLVSNYLTSTLKNGMVVTVGQGRNVSAVAHHVGVITPRDCKFVCSIGGIHPRGGMFNADHICRQLAKKYGGSSETLYAPAYAENPEQKRVFMQNSTVKQTLDLARKADIALVGIGDMSENSYMVDLGWFTPEEVVQSRLNQGVVGDFAGHDFFDVHGRIANTVMNDRVIGLGIDEFRPIAEVIAIAAENSKPLALLGALRTGAIDVIATSVSNALTVLNLDEQMQTALSAS”, “not soluble”; to “YHSTDGDTILVGKNNKQNDYLTNKKARKNHLWFHTKDIPGSHVVILNESPSETTIKEAAMLAGYFSKAGSSAQIPVDYTEIRHVHK”, “not soluble”.
